Laboratory results as given in PMC12359043, “Chemical crosslinking extends and complements UV crosslinking in analysis of RNA/DNA nucleic acid–protein interaction sites by mass spectrometry”.

Target: NELF complex WT (NELF-A/B/C-D/E) (human, UniProt Q9H3P2;Q8WX92;Q8IXH7;P18615 1-528;49-628;1-590;1-380)
Assay: fluorescence anisotropy; NELF-TAR complex: 20 mM HEPES/NaOH pH 7.4, 150 mM NaCl, 10% glycerol, 1 mM DTT, mixed 30 min at 4 C; anisotropy conditions only by reference [29]; Hsh49-Cus1-U2 reconstituted 30 min on ice; Dnmt2 dialysed in 50 mM HEPES pH 7.5, 150 mM NaCl, 2 mM DTT
Conditions: protein: recombinant; copies: 1;1;1;1; hairpin

NELF complex WT (NELF-A/B/C-D/E), sequence (Q9H3P2 whole entry, chain 1 of 4): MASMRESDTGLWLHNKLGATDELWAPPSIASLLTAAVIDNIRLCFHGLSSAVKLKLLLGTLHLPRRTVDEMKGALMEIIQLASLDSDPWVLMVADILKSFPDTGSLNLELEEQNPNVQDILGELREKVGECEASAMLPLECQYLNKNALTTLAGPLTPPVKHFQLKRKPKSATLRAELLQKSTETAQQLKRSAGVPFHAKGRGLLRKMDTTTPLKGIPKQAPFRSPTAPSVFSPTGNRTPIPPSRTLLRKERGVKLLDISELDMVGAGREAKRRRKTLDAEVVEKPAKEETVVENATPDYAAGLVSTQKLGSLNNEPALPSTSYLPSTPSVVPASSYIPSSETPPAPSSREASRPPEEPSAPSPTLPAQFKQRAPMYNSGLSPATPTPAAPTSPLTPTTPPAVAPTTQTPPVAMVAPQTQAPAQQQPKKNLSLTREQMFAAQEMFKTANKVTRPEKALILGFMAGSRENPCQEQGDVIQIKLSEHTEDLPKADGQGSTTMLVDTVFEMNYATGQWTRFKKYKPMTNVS
NELF complex WT (NELF-A/B/C-D/E), sequence (Q8WX92 whole entry, chain 2 of 4): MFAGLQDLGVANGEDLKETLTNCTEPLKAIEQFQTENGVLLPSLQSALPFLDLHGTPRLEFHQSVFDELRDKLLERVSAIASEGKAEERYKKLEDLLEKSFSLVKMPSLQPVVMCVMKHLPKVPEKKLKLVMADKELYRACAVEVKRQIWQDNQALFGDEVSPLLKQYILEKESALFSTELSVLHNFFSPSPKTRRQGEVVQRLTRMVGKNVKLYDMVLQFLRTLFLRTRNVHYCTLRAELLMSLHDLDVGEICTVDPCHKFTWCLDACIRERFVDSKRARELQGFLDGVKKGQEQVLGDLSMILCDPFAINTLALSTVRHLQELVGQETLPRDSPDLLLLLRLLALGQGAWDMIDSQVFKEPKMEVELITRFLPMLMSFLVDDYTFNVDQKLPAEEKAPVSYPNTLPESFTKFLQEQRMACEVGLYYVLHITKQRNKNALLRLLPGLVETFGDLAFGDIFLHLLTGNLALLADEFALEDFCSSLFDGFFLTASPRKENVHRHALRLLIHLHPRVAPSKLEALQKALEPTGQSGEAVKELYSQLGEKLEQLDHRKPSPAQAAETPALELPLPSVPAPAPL
NELF complex WT (NELF-A/B/C-D/E), sequence (Q8IXH7 whole entry, chain 3 of 4): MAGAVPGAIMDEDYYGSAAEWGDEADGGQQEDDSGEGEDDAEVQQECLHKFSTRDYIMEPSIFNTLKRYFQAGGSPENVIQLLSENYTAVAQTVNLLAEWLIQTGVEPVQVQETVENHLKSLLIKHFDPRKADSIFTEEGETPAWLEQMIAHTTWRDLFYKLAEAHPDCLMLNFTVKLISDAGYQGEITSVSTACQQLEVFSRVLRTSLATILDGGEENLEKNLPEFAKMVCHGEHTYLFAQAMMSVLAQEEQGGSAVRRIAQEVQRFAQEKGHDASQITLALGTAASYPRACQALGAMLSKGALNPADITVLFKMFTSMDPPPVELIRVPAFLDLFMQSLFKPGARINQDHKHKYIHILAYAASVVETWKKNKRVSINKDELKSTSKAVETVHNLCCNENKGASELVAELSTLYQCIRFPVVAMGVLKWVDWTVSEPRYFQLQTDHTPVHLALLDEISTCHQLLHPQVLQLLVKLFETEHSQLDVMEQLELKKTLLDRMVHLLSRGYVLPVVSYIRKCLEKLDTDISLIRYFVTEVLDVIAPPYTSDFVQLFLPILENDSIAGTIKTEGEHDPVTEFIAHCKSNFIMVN
NELF complex WT (NELF-A/B/C-D/E), sequence (P18615 whole entry, chain 4 of 4): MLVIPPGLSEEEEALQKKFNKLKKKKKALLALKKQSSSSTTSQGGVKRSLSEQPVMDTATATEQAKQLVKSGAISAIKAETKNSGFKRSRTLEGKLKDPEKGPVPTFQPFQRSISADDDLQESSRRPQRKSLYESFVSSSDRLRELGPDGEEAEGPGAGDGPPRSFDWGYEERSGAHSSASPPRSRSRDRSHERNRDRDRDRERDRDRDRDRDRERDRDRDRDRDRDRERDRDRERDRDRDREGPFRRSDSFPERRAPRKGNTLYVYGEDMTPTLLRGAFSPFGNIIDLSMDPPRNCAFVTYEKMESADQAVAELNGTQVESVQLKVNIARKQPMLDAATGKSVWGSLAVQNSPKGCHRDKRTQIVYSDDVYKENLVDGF

B1: HIV-1 TAR stem-loop RNA (structured_RNA)
RNA: CCAGAUCUGAGCCUGGGAGCUCUCUGG
B1: binds.
